What was measured:
[1] = target: Macaca fascicularis LEPR extracellular domain expressed with a C-terminal myc-myc-hexahistidine tag (mfLEPR.mmh) (Macaca fascicularis); experiment: SPR, captured mAb, 25C
[2] = target: extracellular domain of human LEPR, GPI-anchored on HEK293 cells (HEK293/hLEPR-GPI) (human); experiment: FACS, HEK293/hLEPR-GPI, 70 nM Ab
[3] = target: full length human LEPR on cells (human) (UniProt P48357); experiment: FACS, HEK293/Stat3-luc/hLEPR-FL, 70 nM Ab
[4] = target: extracellular domain of human LEPR, GPI-anchored on HEK293 cells (HEK293/hLEPR-GPI) (human); experiment: FACS, HEK293/hLEPR-GPI
[5] = target: full length human LEPR on cells (human) (UniProt P48357); experiment: FACS, HEK293/Stat3-luc/hLEPR-FL
[6] = target: extracellular domain of human LEPR, GPI-anchored on HEK293 cells (HEK293/hLEPR-GPI) (human); experiment: FACS, HEK293/hLEPR-GPI, 1 µM Leptin
[7] = target: extracellular domain of human LEPR, GPI-anchored on HEK293 cells (HEK293/hLEPR-GPI) (human); experiment: FACS, HEK293/hLEPR-GPI, no added Leptin

full length human LEPR on cells (human), sequence (P48357 22-1165): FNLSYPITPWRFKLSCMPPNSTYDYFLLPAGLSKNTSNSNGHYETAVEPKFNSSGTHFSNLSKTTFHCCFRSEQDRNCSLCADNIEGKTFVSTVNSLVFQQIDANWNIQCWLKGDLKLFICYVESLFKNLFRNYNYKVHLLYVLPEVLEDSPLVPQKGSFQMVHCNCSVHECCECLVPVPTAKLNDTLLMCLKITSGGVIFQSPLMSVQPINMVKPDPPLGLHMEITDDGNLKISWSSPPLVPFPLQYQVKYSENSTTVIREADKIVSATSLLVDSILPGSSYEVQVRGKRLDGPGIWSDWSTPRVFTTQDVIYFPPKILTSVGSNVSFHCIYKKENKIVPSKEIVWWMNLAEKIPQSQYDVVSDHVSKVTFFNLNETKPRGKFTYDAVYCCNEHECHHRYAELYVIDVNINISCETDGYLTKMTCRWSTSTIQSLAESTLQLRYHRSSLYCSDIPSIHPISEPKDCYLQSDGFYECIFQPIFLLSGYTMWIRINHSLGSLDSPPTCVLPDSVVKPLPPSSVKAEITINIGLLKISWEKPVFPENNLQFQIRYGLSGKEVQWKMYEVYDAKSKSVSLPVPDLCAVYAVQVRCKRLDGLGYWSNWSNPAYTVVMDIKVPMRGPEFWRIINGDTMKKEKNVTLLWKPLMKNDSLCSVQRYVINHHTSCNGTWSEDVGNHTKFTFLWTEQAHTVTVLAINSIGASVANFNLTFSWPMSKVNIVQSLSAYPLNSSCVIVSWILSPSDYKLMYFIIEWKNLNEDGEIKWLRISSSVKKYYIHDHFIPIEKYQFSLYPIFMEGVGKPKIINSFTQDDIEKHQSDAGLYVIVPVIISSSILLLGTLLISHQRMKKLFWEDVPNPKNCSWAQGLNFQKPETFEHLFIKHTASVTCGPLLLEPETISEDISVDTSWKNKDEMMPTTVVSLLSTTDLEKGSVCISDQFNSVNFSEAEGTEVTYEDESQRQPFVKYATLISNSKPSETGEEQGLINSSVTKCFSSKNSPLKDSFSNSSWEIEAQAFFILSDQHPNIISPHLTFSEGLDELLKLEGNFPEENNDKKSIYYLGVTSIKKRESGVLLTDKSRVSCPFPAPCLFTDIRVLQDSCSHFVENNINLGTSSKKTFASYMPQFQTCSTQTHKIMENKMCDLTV
Macaca fascicularis LEPR extracellular domain expressed with a C-terminal myc-myc-hexahistidine tag (mfLEPR.mmh) (Macaca fascicularis), sequence (Q9MYL0 other isoform, or with tags, fused parts or gaps): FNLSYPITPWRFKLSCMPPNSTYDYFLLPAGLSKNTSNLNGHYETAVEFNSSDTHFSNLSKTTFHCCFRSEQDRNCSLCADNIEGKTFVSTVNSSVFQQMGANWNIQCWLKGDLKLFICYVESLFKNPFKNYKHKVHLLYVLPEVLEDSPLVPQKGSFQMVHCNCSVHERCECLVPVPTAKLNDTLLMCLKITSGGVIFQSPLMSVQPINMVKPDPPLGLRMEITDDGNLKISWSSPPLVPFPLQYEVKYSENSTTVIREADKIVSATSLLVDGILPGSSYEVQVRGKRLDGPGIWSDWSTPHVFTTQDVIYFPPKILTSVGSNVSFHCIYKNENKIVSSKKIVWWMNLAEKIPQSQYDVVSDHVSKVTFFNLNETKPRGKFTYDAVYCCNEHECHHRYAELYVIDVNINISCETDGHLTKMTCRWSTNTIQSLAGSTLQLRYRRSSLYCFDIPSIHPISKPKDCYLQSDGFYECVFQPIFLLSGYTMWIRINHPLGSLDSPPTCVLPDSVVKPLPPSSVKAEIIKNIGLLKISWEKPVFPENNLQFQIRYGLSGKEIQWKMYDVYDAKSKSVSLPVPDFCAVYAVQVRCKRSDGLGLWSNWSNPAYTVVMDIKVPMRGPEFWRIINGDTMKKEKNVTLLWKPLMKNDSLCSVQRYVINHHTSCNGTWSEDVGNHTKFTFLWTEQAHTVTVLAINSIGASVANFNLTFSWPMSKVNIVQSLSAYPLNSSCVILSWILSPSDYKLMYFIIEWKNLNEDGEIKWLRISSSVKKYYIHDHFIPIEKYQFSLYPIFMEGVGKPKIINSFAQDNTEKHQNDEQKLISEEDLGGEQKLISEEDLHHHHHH

Row | 100 nM mfLEP.MMH Bound (RU) [1] [RU] | Binding Ratio (fold over unstained) [2] | Binding Ratio (fold over unstained) [3] | Binding Ratio (fold over unstained) [4] | Binding Ratio (fold over unstained) [5] | Binding Ratio (fold over unstained) [6] | Binding Ratio (fold over unstained) [7] | Substance
1 | 0 | 2 | 2 | – | – | – | – | Isotype Control mAb (antibody)
2 | – | – | – | 1 | 1 | 3 | 3 | Alexa Fluor-647 conjugated secondary antibody (Jackson ImmunoResearch Laboratories Inc., #109-547-003)
